According to publication PMC5578693, “The role of the C-terminal D0 domain of flagellin in activation of Toll like receptor 5” (PLoS Pathogens, 2017):

How the values were obtained:
[1] = target: soluble hTLR5 ectodomain fused to the Fc region of human IgG1 (human) (UniProt O60602)
[2] = target: T1, soluble hTLR5 ectodomain fused to the Fc region of human IgG1 (human, UniProt O60602 21-639); assay: co-IP; 10 ug hTLR5-Fc bound to protein A-coupled Dynabeads (control: beads with water only); 20 ug wt or mutant flagellin added, 1 h at room temperature; washed 3 times with 1 x PBS, 0.02% Tween 20, pH 7.5; eluted in 0.1% SDS at 95 C; flagellin detected by Western blot with anti-His antibodies; conditions: both partners purified
T1 construct: human Toll-like receptor 5, ectodomain; UniProtKB O60602; In the functional rows this molecule stands for human TLR5, which was there full length on HEK293 cells (pUNO-hTLR5) or endogenous in A549 cells; also called hTLR5-Fc; source: bought: Invivogen
T1 sequence (O60602 21-639): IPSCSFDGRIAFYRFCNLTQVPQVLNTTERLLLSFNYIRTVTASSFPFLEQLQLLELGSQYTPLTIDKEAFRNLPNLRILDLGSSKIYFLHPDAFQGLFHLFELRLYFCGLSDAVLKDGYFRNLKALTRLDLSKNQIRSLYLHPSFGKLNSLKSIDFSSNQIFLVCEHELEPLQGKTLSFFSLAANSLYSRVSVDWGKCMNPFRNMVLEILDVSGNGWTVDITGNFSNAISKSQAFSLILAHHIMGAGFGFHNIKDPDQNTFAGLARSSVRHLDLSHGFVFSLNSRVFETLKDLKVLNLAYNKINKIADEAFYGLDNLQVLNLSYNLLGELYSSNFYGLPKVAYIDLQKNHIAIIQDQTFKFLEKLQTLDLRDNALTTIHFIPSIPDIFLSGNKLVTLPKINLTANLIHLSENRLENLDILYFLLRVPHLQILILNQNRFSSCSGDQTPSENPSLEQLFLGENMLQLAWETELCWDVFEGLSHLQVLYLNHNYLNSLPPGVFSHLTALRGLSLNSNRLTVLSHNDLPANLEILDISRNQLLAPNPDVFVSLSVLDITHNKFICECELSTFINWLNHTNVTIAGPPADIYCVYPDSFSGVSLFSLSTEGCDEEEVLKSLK

soluble hTLR5 ectodomain fused to the Fc region of human IgG1 (human), sequence (O60602 21-639): as above

dimSFΔD0, two SFΔD0 domains tethered into a single polypeptide chain by a 27 amino acid peptide linker
TLR5 activation: NF-kB reporter in A549 cells (SEAP) and in hTLR5-transfected HEK293 cells (luciferase, 0-1000 ng/ml); lowest active concentration [1]: 50 ng/mL

B1: S. typhimurium flagellin FliC, wild type (natural protein, UniProt P06179 1-495, looked up)
chain: MAQVINTNSLSLLTQNNLNKSQSALGTAIERLSSGLRINSAKDDAAGQAIANRFTANIKGLTQASRNANDGISIAQTTEGALNEINNNLQRVRELAVQSANSTNSQSDLDSIQAEITQRLNEIDRVSGQTQFNGVKVLAQDNTLTIQVGANDGETIDIDLKQINSQTLGLDTLNVQQKYKVSDTAATVTGYADTTIALDNSTFKASATGLGGTDQKIDGDLKFDDTTGKYYAKVTVTGGTGKDGYYEVSVDKTNGEVTLAGGATSPLTGGLPATATEDVKNVQVANADLTEAKAALTAAGVTGTASVVKMSYTDNNGKTIDGGLAVKVGDDYYSATQNKDGSISINTTKYTADDGTSKTALNKLGGADGKTEVVSIGGKTYAASKAEGHNFKAQPDLAEAAATTTENPLQKIDAALAQVDTLRSDLGAVQNRFNSAITNLGNTVNNLTSARSRIEDSDYATEVSNMSRAQILQQAGTSVLAQANQVPQNVLSLLR
notes: flagellin FliC of S. typhimurium (SaTy), UniProt P06179; cloned into pET19b; also called SaTy; wild-type flagellin; source: E. coli BL21 (DE3) pLysS, purified (Ni-NTA); not shown: His10, N-terminal, kept
binding result [2]: binds
